Measured values from patent US20250051437A1.
Each block holds one substance with its values, some of them ahead of it.

How the values were obtained:
BT474 Cells = assay: KinExA using BT474 Cells
[1] = molecular target: human cadherin-17 (CDH17), endogenously expressed on human cancer cell lines (LS513, SNU-C1, PaTu8988s, HPAF-II) (human) (UniProt Q12864); assay: indirect flow cytometry (iQue) on LS513 cells (CDH17+); secondary antibody only, background control
[2] = molecular target: human CDH17-mGFP fusion protein overexpressed on HEK293T cells (clone G11) (human) (UniProt Q12864); assay: flow cytometry (iQue) on HEK293T CDH17 mGFP clone G11 (human); secondary antibody only, background control
[3] = molecular target: mouse CDH17-mGFP fusion protein overexpressed on HEK293T cells (mouse) (UniProt Q9R100); assay: flow cytometry (BD C6), secondary antibody alone on HEK293T Mouse CDH17 mGFP cells; on HEK293T Parental: 507.66
Sequence of mouse CDH17-mGFP fusion protein overexpressed on HEK293T cells (mouse) (Q9R100 26-827): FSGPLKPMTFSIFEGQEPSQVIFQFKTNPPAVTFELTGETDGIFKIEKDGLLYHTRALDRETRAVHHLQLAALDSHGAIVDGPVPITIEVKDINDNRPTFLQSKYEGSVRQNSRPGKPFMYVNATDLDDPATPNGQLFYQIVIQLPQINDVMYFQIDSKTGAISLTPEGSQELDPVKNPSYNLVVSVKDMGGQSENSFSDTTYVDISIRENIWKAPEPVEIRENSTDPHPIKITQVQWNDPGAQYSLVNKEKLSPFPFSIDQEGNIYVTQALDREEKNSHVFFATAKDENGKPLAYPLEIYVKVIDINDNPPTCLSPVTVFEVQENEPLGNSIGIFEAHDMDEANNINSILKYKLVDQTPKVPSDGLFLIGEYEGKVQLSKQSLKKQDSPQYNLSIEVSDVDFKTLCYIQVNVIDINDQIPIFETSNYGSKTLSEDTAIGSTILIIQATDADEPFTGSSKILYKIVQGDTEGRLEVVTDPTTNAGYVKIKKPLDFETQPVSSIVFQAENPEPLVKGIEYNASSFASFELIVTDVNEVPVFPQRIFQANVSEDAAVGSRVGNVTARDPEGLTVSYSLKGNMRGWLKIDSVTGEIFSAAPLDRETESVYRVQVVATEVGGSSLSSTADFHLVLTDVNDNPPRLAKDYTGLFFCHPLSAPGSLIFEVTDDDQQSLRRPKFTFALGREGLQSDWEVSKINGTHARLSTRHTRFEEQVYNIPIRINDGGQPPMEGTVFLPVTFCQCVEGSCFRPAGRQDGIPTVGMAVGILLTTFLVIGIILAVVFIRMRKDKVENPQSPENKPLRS

[4] = molecular target: human cadherin-17 (CDH17), endogenously expressed on human cancer cell lines (LS513, SNU-C1, PaTu8988s, HPAF-II) (human) (UniProt Q12864); assay: flow cytometry (iQue) on LS513 cells; secondary antibody only, background control
[5] = molecular target: monkey (crab-eating macaque) CDH17 fused to moxGFP, overexpressed on HEK293T cells (monkey (crab-eating macaque)); assay: flow cytometry (BD C6), secondary antibody alone on HEK293T Macaque CDH17 moxGFP cells; on HEK293T Parental: 507.66
[6] = molecular target: rat CDH17 fused to moxGFP, overexpressed on HEK293T cells (rat) (UniProt P55281); assay: flow cytometry (BD C6), secondary antibody alone on HEK293T Rat CDH17 moxGFP cells; on HEK293T Parental: 507.66
Sequence of rat CDH17 fused to moxGFP, overexpressed on HEK293T cells (rat) (P55281 22-827): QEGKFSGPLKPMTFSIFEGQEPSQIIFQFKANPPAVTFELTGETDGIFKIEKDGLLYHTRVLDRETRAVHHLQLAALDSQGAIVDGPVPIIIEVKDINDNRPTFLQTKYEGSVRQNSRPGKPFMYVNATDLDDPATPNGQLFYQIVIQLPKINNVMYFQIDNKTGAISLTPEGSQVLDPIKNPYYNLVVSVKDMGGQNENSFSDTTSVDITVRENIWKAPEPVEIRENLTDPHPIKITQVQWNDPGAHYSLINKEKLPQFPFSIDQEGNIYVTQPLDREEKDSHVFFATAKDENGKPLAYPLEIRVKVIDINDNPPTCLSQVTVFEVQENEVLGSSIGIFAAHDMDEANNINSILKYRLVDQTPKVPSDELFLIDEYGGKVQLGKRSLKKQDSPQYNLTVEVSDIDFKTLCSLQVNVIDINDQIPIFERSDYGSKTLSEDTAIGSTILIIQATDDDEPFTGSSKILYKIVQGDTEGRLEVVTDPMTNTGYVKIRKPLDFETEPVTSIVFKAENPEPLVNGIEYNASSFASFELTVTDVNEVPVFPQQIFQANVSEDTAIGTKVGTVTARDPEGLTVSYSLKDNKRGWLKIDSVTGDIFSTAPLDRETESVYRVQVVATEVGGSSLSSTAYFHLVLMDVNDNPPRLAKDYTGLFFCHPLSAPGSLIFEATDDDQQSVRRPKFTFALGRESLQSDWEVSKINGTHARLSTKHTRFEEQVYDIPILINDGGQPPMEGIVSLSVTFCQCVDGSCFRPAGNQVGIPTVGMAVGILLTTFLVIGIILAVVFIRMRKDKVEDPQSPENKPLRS

[7] = molecular target: human CDH17-mGFP fusion protein overexpressed on HEK293T cells (clone G11) (human) (UniProt Q12864); assay: flow cytometry (BD C6), secondary antibody alone on HEK293T CDH17 mGFP G11 cells; on HEK293T Parental: 507.66
[8] = molecular target: human cadherin-17 (CDH17), endogenously expressed on human cancer cell lines (LS513, SNU-C1, PaTu8988s, HPAF-II) (human) (UniProt Q12864); assay: flow cytometry (iQue) on PATU8988S cells; secondary antibody only, background control
[9] = molecular target: human cadherin-17 (CDH17), endogenously expressed on human cancer cell lines (LS513, SNU-C1, PaTu8988s, HPAF-II) (human) (UniProt Q12864); assay: flow cytometry (iQue) on SNUC1 cells; secondary antibody only, background control

Kd (BT474 Cells): 769 pM
Substance: Herceptin (antibody)

FL4-H [1]: 33200
Substance: AF647-anti-his tag 2° Ab (secondary antibody alone, control)

Antibody Binding Activity by Flow iQue [2]: 1960
FL4-H [3]: 740
Antibody Binding Activity by Flow iQue [4]: 4900
FL4-H [5]: 720
FL4-H [6]: 633
FL4-H [7]: 727
Antibody Binding Activity by Flow iQue [8]: 5930
Antibody Binding Activity by Flow iQue [9]: 3900
Substance: fluorochrome-labelled anti-human IgG secondary antibody alone (2nd Ab only control)
